Experimental data reported in article PMC2807882, “Conservation of DNA-binding specificity and oligomerisation properties within the p53 family”.

Columns and labels:
Xlp53 = Xlp53 (Xenopus laevis, UniProt Q7T1D0 1-362); experiment: fluorescence anisotropy direct titration; 25 mM sodium phosphate (purification buffer pH 7.2), 225 mM NaCl, 10% v/v glycerol, 5 mM DTT, 0.2 mg/mL BSA, 22 C; details: protein: recombinant; tags: N-terminal 6xHis-lipoyl-TEV tag, cleaved; chain copies: 4; label: 5'-Alexa488
Xlp53, sequence (Q7T1D0 entry or part of it): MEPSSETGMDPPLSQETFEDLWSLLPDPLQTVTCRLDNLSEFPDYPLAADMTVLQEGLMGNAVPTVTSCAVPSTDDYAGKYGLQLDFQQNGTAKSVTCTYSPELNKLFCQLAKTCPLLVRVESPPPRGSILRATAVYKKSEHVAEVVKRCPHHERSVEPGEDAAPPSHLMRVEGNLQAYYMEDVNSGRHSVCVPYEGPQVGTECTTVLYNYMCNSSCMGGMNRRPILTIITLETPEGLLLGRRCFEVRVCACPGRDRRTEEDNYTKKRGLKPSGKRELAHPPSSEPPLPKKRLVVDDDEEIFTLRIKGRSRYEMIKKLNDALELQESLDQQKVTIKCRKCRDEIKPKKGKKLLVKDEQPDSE

Hsp53 [1] = target: T1, Hsp53 (Homo sapiens, UniProt P04637 1-393); experiment: as above; details: protein: recombinant; tags: N-terminal 6xHis-lipoyl-TEV tag, cleaved; chain copies: 4; label: 5'-Alexa488
T1 sequence (P04637 whole entry): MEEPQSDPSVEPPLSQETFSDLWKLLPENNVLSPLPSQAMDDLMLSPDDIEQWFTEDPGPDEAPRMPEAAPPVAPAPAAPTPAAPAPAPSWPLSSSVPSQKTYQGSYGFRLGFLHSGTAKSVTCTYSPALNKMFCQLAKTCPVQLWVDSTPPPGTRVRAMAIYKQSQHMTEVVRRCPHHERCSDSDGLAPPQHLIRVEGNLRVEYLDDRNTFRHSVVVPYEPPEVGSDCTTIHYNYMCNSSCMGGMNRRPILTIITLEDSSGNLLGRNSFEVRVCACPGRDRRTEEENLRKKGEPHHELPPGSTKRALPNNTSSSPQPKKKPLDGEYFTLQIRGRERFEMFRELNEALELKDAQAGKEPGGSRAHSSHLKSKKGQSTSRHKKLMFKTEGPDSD

ΔNp63γ = target: T2, ΔNp63γ (Homo sapiens, UniProt Q9H3D4-6 1-393); experiment: fluorescence anisotropy competition titration; 25 mM sodium phosphate (purification buffer pH 7.2), 225 mM NaCl, 10% v/v glycerol, 5 mM DTT, 0.2 mg/mL BSA, 22 C; details: protein: recombinant; tags: N-terminal 6xHis-lipoyl-TEV tag, cleaved; chain copies: 4
T2 sequence: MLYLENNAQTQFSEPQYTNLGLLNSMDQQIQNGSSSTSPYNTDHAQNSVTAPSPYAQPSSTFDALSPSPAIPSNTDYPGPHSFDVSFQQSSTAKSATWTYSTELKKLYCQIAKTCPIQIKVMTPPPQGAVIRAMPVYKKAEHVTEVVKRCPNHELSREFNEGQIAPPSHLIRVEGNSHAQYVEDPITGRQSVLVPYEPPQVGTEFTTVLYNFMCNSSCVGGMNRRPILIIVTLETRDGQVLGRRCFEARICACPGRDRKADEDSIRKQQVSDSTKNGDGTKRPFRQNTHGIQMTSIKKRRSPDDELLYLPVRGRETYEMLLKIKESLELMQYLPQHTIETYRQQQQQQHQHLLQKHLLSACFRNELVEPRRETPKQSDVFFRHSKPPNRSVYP

ΔNp63α = target: T3, ΔNp63α (Homo sapiens, UniProt Q9H3D4-2 1-586); experiment: as above; details: protein: recombinant; tags: N-terminal 6xHis-lipoyl-TEV tag, cleaved; chain copies: 4
T3 sequence: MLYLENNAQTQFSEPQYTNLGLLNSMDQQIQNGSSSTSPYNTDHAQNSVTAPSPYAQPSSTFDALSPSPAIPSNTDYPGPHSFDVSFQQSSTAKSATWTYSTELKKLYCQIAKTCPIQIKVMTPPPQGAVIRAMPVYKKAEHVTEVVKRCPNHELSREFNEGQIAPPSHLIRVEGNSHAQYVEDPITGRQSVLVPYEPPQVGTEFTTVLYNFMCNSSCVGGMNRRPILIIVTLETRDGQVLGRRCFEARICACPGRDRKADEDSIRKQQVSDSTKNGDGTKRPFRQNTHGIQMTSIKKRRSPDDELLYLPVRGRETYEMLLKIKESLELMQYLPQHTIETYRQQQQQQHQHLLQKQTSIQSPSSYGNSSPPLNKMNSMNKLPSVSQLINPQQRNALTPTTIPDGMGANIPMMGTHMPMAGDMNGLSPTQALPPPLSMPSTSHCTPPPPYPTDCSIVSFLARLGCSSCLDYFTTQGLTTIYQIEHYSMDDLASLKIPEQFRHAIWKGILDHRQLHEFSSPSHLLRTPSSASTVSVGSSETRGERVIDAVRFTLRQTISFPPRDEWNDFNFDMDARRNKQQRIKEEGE

p73CT = target: T4, p73CT (Homo sapiens, UniProt O15350 104-383); experiment: as above; details: protein: recombinant; tags: N-terminal 6xHis-lipoyl-TEV tag, cleaved; chain copies: 4
T4 sequence: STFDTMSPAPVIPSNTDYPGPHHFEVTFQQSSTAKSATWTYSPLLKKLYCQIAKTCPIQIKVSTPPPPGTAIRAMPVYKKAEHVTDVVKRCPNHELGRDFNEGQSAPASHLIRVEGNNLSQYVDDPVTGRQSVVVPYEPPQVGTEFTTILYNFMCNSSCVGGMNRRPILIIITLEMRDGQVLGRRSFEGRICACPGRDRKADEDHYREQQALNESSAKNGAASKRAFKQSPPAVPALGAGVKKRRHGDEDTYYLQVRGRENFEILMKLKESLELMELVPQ

Dmp53 = target: T5, Dmp53 (Drosophila melanogaster, UniProt Q9N6D8 1-385); experiment: as above; details: protein: recombinant; tags: N-terminal 6xHis-lipoyl-TEV tag, cleaved; chain copies: 4
T5 sequence: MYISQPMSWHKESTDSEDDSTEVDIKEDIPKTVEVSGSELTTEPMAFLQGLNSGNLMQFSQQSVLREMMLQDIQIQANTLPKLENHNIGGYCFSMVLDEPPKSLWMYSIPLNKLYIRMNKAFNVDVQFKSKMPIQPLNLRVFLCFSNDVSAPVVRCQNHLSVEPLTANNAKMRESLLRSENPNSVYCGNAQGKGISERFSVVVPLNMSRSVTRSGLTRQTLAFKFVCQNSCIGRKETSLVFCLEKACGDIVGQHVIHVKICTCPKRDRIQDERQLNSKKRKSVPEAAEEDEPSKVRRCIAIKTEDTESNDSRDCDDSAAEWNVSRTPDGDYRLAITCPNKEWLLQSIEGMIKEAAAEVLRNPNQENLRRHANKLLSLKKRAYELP

Hsp53 [2] = target: T1, Hsp53; experiment: as above; details: protein: recombinant; tags: N-terminal 6xHis-lipoyl-TEV tag, cleaved; chain copies: 4

B1: Ref_Alexa488 (dsDNA)
DNA 1: GGACATGTCCGGACATGTCC
DNA 2: GGACATGTCCGGACATGTCC
- Kd (Xlp53): 47.9 nM
- Kd (Hsp53 [1]): 56.2 nM

B2: Ref competitor (dsDNA)
DNA 1: CGCGGACATGTCCGGACATGTCCCGC
DNA 2: GCGGGACATGTCCGGACATGTCCGCG
- Kd (ΔNp63γ): 33.1 nM
- Kd (ΔNp63α): 61.7 nM
- Kd (p73CT): 148 nM
- Kd (Dmp53): 27.5 nM
- Kd (Hsp53 [2]): 75.9 nM
